Reference: patent US20180071385A1 (LEIDOS, published 2018)

Target: human PD-1 on Jurkat cells (human, UniProt Q15116 25-288)
Assay: cell-based or functional assay

Sequence of human PD-1 on Jurkat cells (Q15116 25-288): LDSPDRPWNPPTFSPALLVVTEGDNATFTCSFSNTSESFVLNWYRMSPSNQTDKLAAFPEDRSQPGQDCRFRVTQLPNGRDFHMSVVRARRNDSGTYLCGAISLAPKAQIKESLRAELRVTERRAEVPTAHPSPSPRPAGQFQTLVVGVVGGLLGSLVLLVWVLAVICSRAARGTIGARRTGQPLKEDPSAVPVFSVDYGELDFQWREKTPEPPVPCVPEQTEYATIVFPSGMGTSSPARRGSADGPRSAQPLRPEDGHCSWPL

EC50 (read off the curve), Fold Inhibition of RLU: ~8 µM
B1: peptide QP20 (peptide)
peptide: QTRTVPMPKIHHPPWQNVVP
